Measurements published in patent WO2005095457A2 (dated 2005).
Values belong to the binder of their own block, whether it stands above or below them.

How the values were obtained:
[1] = target: T1, cynomolgus monkey OSM (cOSM) (cynomolgus monkey, UniProt P13725 26-221 (human entry), limits assumed); test: gp130 inhibition ELISA, purified antibodies
T1 construct: also called cynomolgus OSM
T1 chain: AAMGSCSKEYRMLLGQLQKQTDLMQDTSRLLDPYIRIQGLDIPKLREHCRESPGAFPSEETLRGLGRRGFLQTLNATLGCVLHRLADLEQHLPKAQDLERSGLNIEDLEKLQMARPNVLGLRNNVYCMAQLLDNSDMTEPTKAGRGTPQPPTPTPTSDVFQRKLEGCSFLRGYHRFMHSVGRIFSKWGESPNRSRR

[2] = target: T2, human Oncostatin M (hOSM) (human, UniProt P13725 26-221); test: gp130 ELISA, hOSM
T2 construct: also called human OSM
T2 sequence: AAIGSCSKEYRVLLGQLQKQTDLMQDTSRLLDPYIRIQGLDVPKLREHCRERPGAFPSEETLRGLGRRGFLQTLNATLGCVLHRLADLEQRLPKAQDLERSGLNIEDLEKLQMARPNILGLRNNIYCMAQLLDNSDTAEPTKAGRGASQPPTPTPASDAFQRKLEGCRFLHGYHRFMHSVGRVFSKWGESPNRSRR

[3] = target: T3, glycosylated human OSM (hOSM) produced in CHO cells (human) (UniProt P13725); test: competition ELISA: murine 10D3 titrated against 15E10-B3L2 (150 ng/ml, the competitor) on soluble glycosylated hOSM (50 ng/ml), capture by OM4-11.31, anti-human gamma chain detection
T3 sequence (chain, glycosylated (CHO cell glycosylated)): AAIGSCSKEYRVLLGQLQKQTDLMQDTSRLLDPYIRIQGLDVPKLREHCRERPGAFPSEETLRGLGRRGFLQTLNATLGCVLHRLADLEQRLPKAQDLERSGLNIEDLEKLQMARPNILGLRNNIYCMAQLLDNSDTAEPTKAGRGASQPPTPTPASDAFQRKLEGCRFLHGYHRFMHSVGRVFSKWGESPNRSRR

[4] = target: T1, cynomolgus monkey OSM (cOSM); test: gp130 inhibition ELISA and KB cell assay
[5] = target: T1, cynomolgus monkey OSM (cOSM); test: gp130 inhibition ELISA, cynomolgus OSM

binding result [1]: binds
B1: humanised 15E10 antibody B3L2 (antibody, human IgG1, kappa, V domains shown)
VH: QVQLVESGGGVVQPGRSLRLSCAASGFSLTNYGVHWVRQAPGKGLEWVAVIWRGGSTDYNAAFMSRFTISKDNSKNTLYLQMNSLRAEDTAVYYCAKSPNSNFYWYFDVWGRGTLVTVSS
VL: EIVLTQSPATLSLSPGERATLSCSGSSSVSYMYWYQQKPGQAPRLLIEDTSNLASGIPARFSGSGSGTDYTLTISNLEPEDFAVYYCQQWSSYPPTFGQGTKLEIKR
notes: Human IgG1 wild type / kappa; purified from CHO; also called B3L2 wt; 15E10-B3L2

IC50 [2]: 0.032 µg/mL
% inhibition of 15E10 at equimolarity (0.15μg/ml) [3]: 62.3%
B2: 10D3 chimaeric antibody (antibody, human IgG1, V domains shown)
VH: EVQLQQSGPELVKPGASVKISCKASGYIFTDYNMDWVKQSHGKKLEWIGDINPNNGGTIDNQKFKDKATLTVDKSSSTAYMELRSLTSEDTAVYYCARGIYYYGSHYFDYWGQGTTLTVSS
VL: QIVLTQSPAIMSASPGEKVTMTCSATSSVSVMHWFQKKSGTSPKRWIYDTSKLASGVPTRFSGSGSGTSYSLTISSMEAEDTATYYCQQWSSNPLTFGSGTKLELK
notes: expressed in CHO; also called chimaeric 10D3; chimeric 10D3

binding result [4]: binds
B3: 15E10 chimaeric antibody (antibody, human IgG1, V domains shown)
VH: QVQLKQSGPGLVQPSQSLSITCTVSGFSLTNYGVHWVRQSPGKGLEWLGVIWRGGSTDYNAAFMSRLSITKDNSRSQVFFKMNSLQADDTAIYYCAKSPNSNFYWYFDVWGTGTTVTVSS
VL: QIVLTQSPTIMSASPGEKVTMTCSGSSSVSYMYWYQEKPGSSPRLLIEDTSNLASGVPARFSGSGSGTSYSLTISRMEAEDAATYYCQQWSSYPPTFGSGTKLEIK
notes: expressed in CHO; also called chimaeric 15E10; 15E10 chimaera

binding result [5]: binds
B4: 15E10 murine antibody (antibody, mouse IgG2a, V domains shown)
VH: QVQLKQSGPGLVQPSQSLSITCTVSGFSLTNYGVHWVRQSPGKGLEWLGVIWRGGSTDYNAAFMSRLSITKDNSRSQVFFKMNSLQADDTAIYYCAKSPNSNFYWYFDVWGTGTTVTVSS
VL: QIVLTQSPTIMSASPGEKVTMTCSGSSSVSYMYWYQEKPGSSPRLLIEDTSNLASGVPARFSGSGSGTSYSLTISRMEAEDAATYYCQQWSSYPPTFGSGTKLEIK
notes: also called clone 15E10; parent murine 15E10
